Source: article PMC4546627, “Biophysical Characterization of Essential Phosphorylation at the Flexible C-Terminal Region of C-Raf with 14-3-3ζ Protein” (PLoS ONE, 2015)
Entries after “also recorded” stand apart in the source; their conditions may differ. Where a SMILES comes first, the peptide text is derived from it. Where no end group is shown, it is not given here. [ ]: non-standard residue; d: D form. pS = N[C@@H](COP(=O)(O)O)C(=O)O

What was measured:
[1] = molecular target: C-Raf pS233 peptide (Homo sapiens) (UniProt P04049); conditions: cited from earlier work
[2] = molecular target: C-Raf pS233/pS259 peptide (Homo sapiens) (UniProt P04049); conditions: cited from earlier work
[3] = molecular target: C-Raf pS259 peptide (Homo sapiens) (UniProt P04049); conditions: cited from earlier work
[4] = molecular target: T1, human 14-3-3ζ protein (Homo sapiens, UniProt P63104); assay: Isothermal titration calorimetry (ITC) of peptide binding to 14-3-3ζ
T1 construct: hexa-histidine (His6, from pQE30 vector) (N); made in house; host or cells: E. coli M15
T1 sequence (P63104 1-245): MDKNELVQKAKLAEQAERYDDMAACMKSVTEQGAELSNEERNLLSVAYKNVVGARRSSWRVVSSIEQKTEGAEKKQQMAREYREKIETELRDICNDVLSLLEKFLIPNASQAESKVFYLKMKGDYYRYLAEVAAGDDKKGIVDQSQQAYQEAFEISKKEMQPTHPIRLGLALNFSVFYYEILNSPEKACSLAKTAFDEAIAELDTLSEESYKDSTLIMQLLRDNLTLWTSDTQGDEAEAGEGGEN
Source text: Human 14-3-3ζ full length sequence was PCR amplified using pcDNA3 14-3-3ζ as a template with forward primer (5´-[…]-3´) and reverse primer (5´-[…]-3´). The PCR amplified product was digested with BamH1 and Pst1 and cloned into pQE30 vector. This vector contains N-terminal hexa- histidine tag suitable for affinity purification. The cloned fragment was confirmed by automated DNA sequencer, Applied Biosystem 3130×I 96 capillary DNA Analyzer.
E. coli M15 cells were transformed with this construct and grown at 37°C in LB medium containing ampicillin and kanamycin. The cells were grown till 0.6 (O.D.600nm) and the expression of the protein was induced with 0.5 mM IPTG for 3 hours. The cells were harvested and stored at -70°C. The cells were subsequently resuspended in lysis buffer (10 mM NaH2PO4, 100 mM NaCl, pH7.0, 1 mM PMSF (Sigma, St. Louis, MO), 1X Halt Protease inhibitor cocktail (ThermoFisher Scientific, Waltham, MA) and lysed by passing through the French press at 20,000 psi. Cell lysate was centrifuged at 20,000×g for 15 minutes at 4°C. The supernatant was collected and again centrifuged at 100,000×g for 1 hour. Cell homogenate was applied onto TALON affinity resin (Clontech, Mountain View, CA) pre-equilibrated with lysis buffer. Resin was washed with five volumes of lysis buffer containing 20 mM imidazole. Bound protein was eluted with 150 mM imidazole containing lysis buffer. Imidazole was then removed by dialysis; the buffer was exchanged with 10 mM NaH2PO4, 100 mM NaCl, pH 6.1 and the protein was concentrated in sucrose bed. Commercially synthesized and HPLC-purified (> 95%) KH16p and KH16 peptides were purchased from GL Biochem (Shanghai, China) and used as received.
ITC technique was employed to study thermodynamics of KH16p and KH16 peptides interactions with 14-3-3ζ protein with the help of VP-ITC micro-calorimeter in high feedback mode. The peptides were dissolved in the same dialysis buffer of 14-3-3ζ protein (i.e., 10 mM Na2HPO4 buffer containing 100 mM NaCl, pH 6.1). Sample cell with 50 μM 14-3-3ζ protein was titrated against 1 mM peptide in a syringe with 300 rpm stirring speed with an initial delay of 60 sec. The cell temperature was kept at 298 K and 10 μcal/s of reference power as applied to maintain a flat baseline. A total of 17 injections of 1 mM KH16p/KH16 were performed, where the initial injection was of 0.4 μl and the final was 2.0 μl, while the remaining 15 injections were 2.5 μl each. Each injection was over a period of 0.8 sec with a spacing of 150 sec and filter time of 5 sec. An equivalent control experiment to subtract the heat of dilution of the peptides in buffer was performed (i.e., the same concentration of peptide was injected into the buffer solution keeping same experimental parameters). Results obtained were plotted using MicroCal Origin 7.0 software. In order to determine the thermodynamic parameters (i.e., association constant K A and enthalpy of reaction ΔH), the single-site binding model was used. Other thermodynamic parameters such as the free energy of binding (ΔG) and entropy (ΔS) were calculated using Eqs (2) and (3), respectively: ΔG=−RTlnKA (2) ΔG=ΔH−TΔS (3)

[5] = molecular target: T1, human 14-3-3ζ protein; assay: STD NMR with 14-3-3ζ; format: binding; conditions: 1 mM peptide, 2 μM 14-3-3ζ (500:1), D2O, 10 mM Na2HPO4, 100 mM NaCl, pH 6.1, 288 K
Procedure: Saturation transfer difference (STD) NMR experiments were carried out at 288 K using standard STD pulse sequences, with WATERGATE 3-9-19 water suppression method. Briefly, 1 mM of KH16p/KH16 peptide in 10 mM Na2HPO4 buffer (pH 6.1) with 100 mM NaCl was lyophilized and resuspended in an equal volume of D2O, and 2 μM 14-3-3ζ proteins was added to it. A train of 40 selective Gaussian-shaped pulses (49 ms each) with an interval period of 1 ms was used to saturate protein resonance for a total of 2 sec saturation time. During the STD NMR experiment, on- and off-resonance frequencies were set at -1 ppm and 40 ppm, respectively. Subtraction of off-resonance spectrum from the on-resonance spectra to yield signals appearing due to saturation transfer from protein to ligand was achieved using phase cycling. The one-dimensional STD spectra were acquired with 1024 scans with 16 dummy scans using a sweep width of 12 ppm. An exponential line broadening function of 3 Hz was applied to the spectral data before Fourier transformation. Similar STD experiments were performed on the peptide KH16p or KH16 in the absence of 14-3-3ζ protein as a control.

[6] = molecular target: T2, 14-3-3ζ (Homo sapiens, UniProt P63104); assay: 31P NMR
T2 chain: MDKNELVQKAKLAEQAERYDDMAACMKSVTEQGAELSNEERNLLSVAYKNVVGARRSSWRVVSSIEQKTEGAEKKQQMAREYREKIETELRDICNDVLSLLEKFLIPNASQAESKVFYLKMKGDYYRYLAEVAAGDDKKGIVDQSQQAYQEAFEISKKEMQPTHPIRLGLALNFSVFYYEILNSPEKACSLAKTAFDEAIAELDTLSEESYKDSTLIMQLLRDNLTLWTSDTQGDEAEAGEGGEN

14-3-3ζ (from UniProt P63104)
Kd [1]: 171 µM | Kd [2]: 0.346 µM | Kd [3]: 16.7 µM

KH16: control peptide KH16 devoid of phosphorylation at S621 (C-Raf 615–630) (KINRSASEPSLHRAAH; UniProt P04049 615-630, looked up, fragment)
N (stoichiometry) ([4]; ITC, 50 μM 14-3-3ζ in cell, 1 mM peptide in syringe, 298 K, 10 mM Na2HPO4, 100 mM NaCl, pH 6.1, single-site binding model): 1.89 ± 1.45 × 10^4 | T∆S ([4]; ITC, 298 K, pH 6.1): -411.24 kcal/mol | binding affinity (in words) ([4]; ITC, 298 K, pH 6.1): did not show any appreciable binding affinity; also recorded: relatively weak and the corresponding KD value is in the millimolar range | ∆S ([4]; ITC, 298 K, pH 6.1, calculated from ΔG=ΔH−TΔS): -1.38 × 10^3 cal mol^-1 deg^-1 | ∆G ([4]; ITC, 298 K, pH 6.1, calculated from ΔG=−RTlnKA): -1.96 kcal/mol | STD NMR signals with 14-3-3ζ (in words) [5]: did not show any peaks in both the aromatic and the aliphatic regions

CC[C@H](C)[C@H](NC(=O)[C@@H](N)CCCCN)C(=O)N[C@@H](CC(N)=O)C(=O)N[C@@H](CCCNC(=N)N)C(=O)N[C@@H](CO)C(=O)N[C@@H](C)C(=O)N[C@@H](COP(=O)(O)O)C(=O)N[C@@H](CCC(=O)O)C(=O)N1CCC[C@H]1C(=O)N[C@@H](CO)C(=O)N[C@@H](CC(C)C)C(=O)N[C@@H](Cc1c[nH]cn1)C(=O)N[C@@H](CCCNC(=N)N)C(=O)N[C@@H](C)C(=O)N[C@@H](C)C(=O)N[C@@H](Cc1c[nH]cn1)C(=O)O [KH16p] (H-KINRSA[pS]EPSLHRAAH-OH)
Kd [4]: 17.3 µM

B1: C-Raf KH16p phosphopeptide 615-630 (peptide)
chain: KINRSA[pS]EPSLHRAAH
Kd [6]: 17.7 µM
